Reference: publication PMC7684303

Biological target: MBS complex (membrane-bound sulfane sulfur reductase), monomeric 13-subunit complex (Pyrococcus furiosus)
Test: cryo-EM structure; MBS purified in DDM, ~5 mg/ml; grids prepared under aerobic conditions; twofold symmetry applied; overall resolution 4.0 Å

stoichiometry N: 2
Substance: MBS complex (membrane-bound sulfane sulfur reductase), monomeric 13-subunit complex
